Article PMC7447434, “Atomic structure of a mitochondrial complex I intermediate from vascular plants” (eLife, 2020)

T1: NU2M (Vigna radiata, UniProt E9KZK9 1-488, S19F | S103F | S104F | P119L | P121S | R123C | H132Y | P143L | S166LL | S221F | …)
T1 construct: NU2M, mitochondrially encoded core PP-module subunit of Vigna radiata complex I; 488 residues; residues 1-487 modelled; 14 TMH; the substitutions are RNA editing sites against the entry, made in the model where the density fitted the edited residue; RNA edits are natural; 'S166LL' is printed so and was read as S166L; also called Nad2 (A. thaliana name)
T1 sequence (looked up): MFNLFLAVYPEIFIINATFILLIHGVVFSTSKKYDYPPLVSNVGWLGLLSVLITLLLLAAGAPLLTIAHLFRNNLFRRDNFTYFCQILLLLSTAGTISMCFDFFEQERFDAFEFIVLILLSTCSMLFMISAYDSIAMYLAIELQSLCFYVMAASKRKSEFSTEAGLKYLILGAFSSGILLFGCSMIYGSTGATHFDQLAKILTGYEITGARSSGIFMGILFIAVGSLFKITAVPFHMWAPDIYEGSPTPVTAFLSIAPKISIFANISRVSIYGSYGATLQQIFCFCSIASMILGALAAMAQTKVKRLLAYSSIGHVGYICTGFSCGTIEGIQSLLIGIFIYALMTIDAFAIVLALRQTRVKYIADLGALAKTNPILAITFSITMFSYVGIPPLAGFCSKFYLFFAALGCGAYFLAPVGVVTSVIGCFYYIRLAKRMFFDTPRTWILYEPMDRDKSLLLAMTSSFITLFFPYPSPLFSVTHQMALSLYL

B1: CA1 (natural protein, Vigna radiata, UniProt A0A1S3VT00 1-270, looked up)
chain: MGTLGRAFYAVGFWIRETGQAIDRLGSRLQGNYLFQEQLSRHRPLMNLFDKYPSVHKDAFVAPSASLLGDVHVGPASSIWYGCVLRGDVNGIVIGSGTNIQDNSLVHVAKSNLTGKVLPTIIGDNVTVGHSAVLQGCTVEDEAFIGMGATLLDGVYVEKHAMVAAGALVRQNTRIPYGEVWGGNPAKFLRKLTEDEMAFFSQSALNYSNLAQAHAAENAKELEETEFVKVLHKKFAPRGEEYDSILDGGQETPAKLNLQDNVLLDKAPKA
notes: CA1, gamma-carbonic-anhydrase domain subunit of Vigna radiata mitochondrial complex I; 270 residues; residues 3-222 modelled, 223-233 as poly-Ala; also called carbonic-anhydrase-1 subunit; Gamma-CA 1 (A. thaliana name)

What was measured:
Test in all cases: cryo-EM structure; CI* (~800 kDa assembly intermediate) from V. radiata mitochondrial membranes, digitonin-extracted, amphipol A8-35-stabilised, sucrose gradient; 6 mg/ml in 20 mM HEPES, 150 mM NaCl, 1 mM EDTA, 0.1% digitonin, pH 7.8; nominal resolution 3.9 Å; interfaces of the γCA domain listed from the model with PDBePISA
Details in all cases: both partners purified
CA1 = biological target: B1
NU2M [1] = biological target: T1, NU2M
NU2M [2] = biological target: T1, NU2M; remark: listed apart in the source

| binding result (CA1) | Binder | binding result (NU2M [1]) | binding result (NU2M [2]) |
| --- | --- | --- | --- |
| binds | NDUC2 (natural protein, Vigna radiata, UniProt A0A1S3UPL8 1-81, looked up, NDUC2, membrane arm accessory subunit of Vigna radiata mitochondrial complex I; 81 residues; residues 5-68 modelled; 2 TMH; also called B14.5b (A. thaliana name)) MVLSATTIGALLGLGTQMYSNALRKLPYMRHPWEHVVGMGLGAVFVNQLLKWEAQVEQDLDKMLEKAKAANERRYIDGDDD | binds |  |
| binds | NDUX1 (natural protein, Vigna radiata, UniProt A0A1S3VI15 1-101, looked up, NDUX1, PP-module accessory subunit of Vigna radiata mitochondrial complex I, named here after Y. lipolytica NUXM; 101 residues; residues 1-100 modelled; 2 TMH; also called homologue of Y. lipolytica NUXM; 20.9 kDa (A. thaliana name)) MNTDITASTKPEYPVVDRNPPFTKVVGNFSTLDYLRFVTITGVSVTVGYLSGIKPGIRGPSMVTGGLIGVMGGFMYAYQNSAGRLMGFFPNDDEVARHNKK | binds |  |
|  | B1 |  | binds |
